# Measurements: US20030224487A1
# B1: human zcytor17lig (untagged, expressed from cDNA or native in conditioned media) (ligand)
# chain: MASHSGPSTSVLFLFCCLGGWLASHTLPVRLLRPSDDVQKIVEELQSLSKMLLKDVEEEKGVLVSQNYTLPCLSPDAQPPNNIHSPAIRAYLKTIRQLDNKSVIDEIIEHLDKLIFQDAPETNISVPTDTHECKRFILTISQQFSECMDLALKSLTSGAQQATT
# What was measured:
# [1] = target: human zcytor17 receptor, full length, on transfected cells (human); assay: flow cytometry (SA-PE), BHK-C17 cells, ligand 0.0001 µg/mL
# [2] = target: human zcytor17 and OSMRbeta co-expressed on transfected cells (human); assay: flow cytometry (SA-PE), BAF3-C17 + OSMRbeta cells, ligand 1.11 µg/mL
# [3] = target: human OncostatinM receptor beta (OSMRbeta), full length, on transfected cells (human); assay: flow cytometry (SA-PE), BAF3-OSMRbeta cells, ligand 0.12 µg/mL (background level; no binding)
# [4] = target: human zcytor17 receptor, full length, on transfected cells (human); assay: flow cytometry (SA-PE), BAF3-C17 cells, ligand 10.0 ng/mL
# [5] = target: human zcytor17 receptor, full length, on transfected cells (human); assay: flow cytometry (SA-PE), BAF3-C17 cells, ligand 0.0 ng/mL (no ligand, background)
# [6] = target: human OncostatinM receptor beta (OSMRbeta), full length, on transfected cells (human); assay: flow cytometry (SA-PE), BHK-OSMRbeta cells, ligand 2.0 µg/mL (background level; no binding)
# [7] = target: human zcytor17 receptor, full length, on transfected cells (human); assay: flow cytometry (SA-PE), BAF3-C17 cells, ligand 1.0 ng/mL
# [8] = target: human OncostatinM receptor beta (OSMRbeta), full length, on transfected cells (human); assay: flow cytometry (SA-PE), BAF3-OSMRbeta cells, ligand 1.11 µg/mL (background level; no binding)
# [9] = target: human OncostatinM receptor beta (OSMRbeta), full length, on transfected cells (human); assay: flow cytometry (SA-PE), BAF3-OSMRbeta cells, ligand 10.0 µg/mL (background level; no binding)
# [10] = target: human OncostatinM receptor beta (OSMRbeta), full length, on transfected cells (human); assay: flow cytometry (SA-PE), BAF3-OSMRbeta cells, ligand 0.00 µg/mL (no ligand, background)
# [11] = target: human zcytor17 and OSMRbeta co-expressed on transfected cells (human); assay: flow cytometry (SA-PE), BHK C17 + OSMRbeta cells, ligand 0.010 µg/mL
# [12] = target: human zcytor17 and OSMRbeta co-expressed on transfected cells (human); assay: flow cytometry (SA-PE), BHK C17 + OSMRbeta cells, ligand 0.001 µg/mL
# [13] = target: human zcytor17 and OSMRbeta co-expressed on transfected cells (human); assay: flow cytometry (SA-PE), BAF3-C17 + OSMRbeta cells, ligand 3.33 µg/mL
# [14] = target: human zcytor17 and OSMRbeta co-expressed on transfected cells (human); assay: flow cytometry (SA-PE), BAF3-C17 + OSMRbeta cells, ligand 10.0 µg/mL
# [15] = target: human zcytor17 receptor, full length, on transfected cells (human); assay: flow cytometry (SA-PE), BHK-C17 cells, ligand 0.000001 µg/mL
# [16] = target: human zcytor17 and OSMRbeta co-expressed on transfected cells (human); assay: flow cytometry (SA-PE), BHK C17 + OSMRbeta cells, ligand 0.000001 µg/mL
# [17] = target: human zcytor17 receptor, full length, on transfected cells (human); assay: flow cytometry (SA-PE), BHK-C17 cells, ligand 0.100 µg/mL
# [18] = target: human zcytor17 receptor, full length, on transfected cells (human); assay: flow cytometry (SA-PE), BAF3-C17 cells, ligand 100.0 ng/mL
# [19] = target: human zcytor17 receptor, full length, on transfected cells (human); assay: flow cytometry (SA-PE), BHK-C17 cells, ligand 0.001 µg/mL
# [20] = target: human zcytor17 receptor, full length, on transfected cells (human); assay: flow cytometry (SA-PE), BHK-C17 cells, ligand 0.010 µg/mL
# [21] = target: human zcytor17 receptor, full length, on transfected cells (human); assay: flow cytometry (SA-PE), BHK-C17 cells, ligand 0.00001 µg/mL
# [22] = target: human zcytor17 and OSMRbeta co-expressed on transfected cells (human); assay: flow cytometry (SA-PE), BAF3-C17 + OSMRbeta cells, ligand 0.12 µg/mL
# [23] = target: human zcytor17 receptor, full length, on transfected cells (human); assay: flow cytometry (SA-PE), BHK-C17 cells, ligand 2.0 µg/mL
# [24] = target: human OncostatinM receptor beta (OSMRbeta), full length, on transfected cells (human); assay: flow cytometry (SA-PE), BAF3-OSMRbeta cells, ligand 0.04 µg/mL (background level; no binding)
# [25] = target: human zcytor17 and OSMRbeta co-expressed on transfected cells (human); assay: flow cytometry (SA-PE), BHK C17 + OSMRbeta cells, ligand 0.0001 µg/mL
# [26] = target: human zcytor17 and OSMRbeta co-expressed on transfected cells (human); assay: flow cytometry (SA-PE), BAF3-C17 + OSMRbeta cells, ligand 0.04 µg/mL
# [27] = target: human zcytor17 receptor, full length, on transfected cells (human); assay: flow cytometry (SA-PE), BHK-C17 cells, ligand 0.0 µg/mL (no ligand, background)
# [28] = target: human zcytor17 and OSMRbeta co-expressed on transfected cells (human); assay: flow cytometry (SA-PE), BHK C17 + OSMRbeta cells, ligand 0.100 µg/mL
# [29] = target: human OncostatinM receptor beta (OSMRbeta), full length, on transfected cells (human); assay: flow cytometry (SA-PE), BAF3-OSMRbeta cells, ligand 3.33 µg/mL (background level; no binding)
# [30] = target: human OncostatinM receptor beta (OSMRbeta), full length, on transfected cells (human); assay: flow cytometry (SA-PE), BHK-OSMRbeta cells, ligand 0.0 µg/mL (no ligand, background)
# [31] = target: human zcytor17 and OSMRbeta co-expressed on transfected cells (human); assay: flow cytometry (SA-PE), BHK C17 + OSMRbeta cells, ligand 2.0 µg/mL
# [32] = target: human OncostatinM receptor beta (OSMRbeta), full length, on transfected cells (human); assay: flow cytometry (SA-PE), BAF3-OSMRbeta cells, ligand 0.37 µg/mL (background level; no binding)
# [33] = target: human zcytor17 and OSMRbeta co-expressed on transfected cells (human); assay: flow cytometry (SA-PE), BHK C17 + OSMRbeta cells, ligand 0.00001 µg/mL
# [34] = target: human zcytor17 and OSMRbeta co-expressed on transfected cells (human); assay: flow cytometry (SA-PE), BHK C17 + OSMRbeta cells, ligand 0.0 µg/mL (no ligand, background)
# [35] = target: human zcytor17 and OSMRbeta co-expressed on transfected cells (human); assay: flow cytometry (SA-PE), BAF3-C17 + OSMRbeta cells, ligand 0.37 µg/mL
# [36] = target: human zcytor17 and OSMRbeta co-expressed on transfected cells (human); assay: flow cytometry (SA-PE), BAF3-C17 + OSMRbeta cells, ligand 0.00 µg/mL (no ligand, background)
# [37] = target: human zcytor17 and OSMRbeta co-expressed on transfected cells (human); assay: cell-based or functional assay
# [38] = target: human zcytor17, OSMRbeta and WSX-1 co-expressed on transfected cells (human); assay: cell-based or functional assay
molecule,measurement,setting,value
biotinylated human zcytor17L (ligand),mean fluorescent intensity (MFI),[1],16
same,mean fluorescent intensity (MFI),[2],489
same,mean fluorescent intensity (MFI),[3],5
same,mean fluorescent intensity (MFI),[4],72
same,mean fluorescent intensity (MFI),[5],7
same,mean fluorescent intensity (MFI),[6],13
same,mean fluorescent intensity (MFI),[7],17
same,mean fluorescent intensity (MFI),[8],5
same,mean fluorescent intensity (MFI),[9],6
same,mean fluorescent intensity (MFI),[10],11
same,mean fluorescent intensity (MFI),[11],328
same,mean fluorescent intensity (MFI),[12],53
same,mean fluorescent intensity (MFI),[13],508
same,mean fluorescent intensity (MFI),[14],531
same,mean fluorescent intensity (MFI),[15],14
same,mean fluorescent intensity (MFI),[16],14
same,mean fluorescent intensity (MFI),[17],1600
same,mean fluorescent intensity (MFI),[18],347
same,mean fluorescent intensity (MFI),[19],39
same,mean fluorescent intensity (MFI),[20],244
same,mean fluorescent intensity (MFI),[21],15
same,mean fluorescent intensity (MFI),[22],364
same,mean fluorescent intensity (MFI),[23],3030
same,mean fluorescent intensity (MFI),[24],5
same,mean fluorescent intensity (MFI),[25],17
same,mean fluorescent intensity (MFI),[26],247
same,mean fluorescent intensity (MFI),[27],15
same,mean fluorescent intensity (MFI),[28],2130
same,mean fluorescent intensity (MFI),[29],5
same,mean fluorescent intensity (MFI),[30],0
same,mean fluorescent intensity (MFI),[31],3780
same,mean fluorescent intensity (MFI),[32],5
same,mean fluorescent intensity (MFI),[33],15
same,mean fluorescent intensity (MFI),[34],13
same,mean fluorescent intensity (MFI),[35],441
same,mean fluorescent intensity (MFI),[36],7
B1,proliferation of BaF3/zcytor17/OSMRbeta cells (Alamar Blue) with conditioned media from activated CCRF-CEM and CCRF-HSB2 cells (fold over background),[37],10
same,proliferation of BaF3/zcytor17/OSMRbeta cells (Alamar Blue) with conditioned media from activated CD3+ selected human cells,[37],15 fold
same,proliferation of BaF3/zcytor17/WSX-1/OSMRbeta cells (Alamar Blue) with conditioned media from activated CCRF-CEM and CCRF-HSB2 cells (fold over background),[38],10
same,proliferation of BaF3/zcytor17/WSX-1/OSMRbeta cells (Alamar Blue) with conditioned media from activated CD3+ selected human cells (fold over background),[38],15
